Experimental findings from US20120225049 are described below.

Data set [1] has as its target Assembled ternary SNARE complex (syntaxin1A 1-263 : SNAP25 : VAMP2 1-96) (UniProt P32851).
Data set [2] deals with K85A-R86S-K87A mutant rat VAMP2 cytoplasmic portion 1-96 (UniProt P63045).
Data set [3] relates to Native guinea pig VAMP2 in isolated pancreatic zymogen granules.
Data set [4] deals with Native guinea pig VAMP8 in isolated pancreatic zymogen granules.
Data set [5] addresses T1, Recombinant human VAMP8 (endobrevin) cytoplasmic portion 1-74 (UniProt Q9BV40).
T1 sequence: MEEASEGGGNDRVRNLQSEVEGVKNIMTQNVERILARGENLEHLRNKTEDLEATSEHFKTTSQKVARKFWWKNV

Data set [6] deals with Recombinant wild type rat SNAP25 full length 1-206 (UniProt P60881).
Chain of Recombinant wild type rat SNAP25 full length 1-206 (P60881 whole entry, looked up, tested part not stated): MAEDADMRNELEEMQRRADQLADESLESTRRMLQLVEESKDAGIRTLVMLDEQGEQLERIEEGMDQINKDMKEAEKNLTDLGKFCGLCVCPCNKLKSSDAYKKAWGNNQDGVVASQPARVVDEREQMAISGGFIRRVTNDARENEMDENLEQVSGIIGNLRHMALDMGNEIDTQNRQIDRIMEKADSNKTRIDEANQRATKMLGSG

Chain of Assembled ternary SNARE complex (syntaxin1A 1-263 : SNAP25 : VAMP2 1-96) (P32851 whole entry, looked up, tested part not stated, one chain of several): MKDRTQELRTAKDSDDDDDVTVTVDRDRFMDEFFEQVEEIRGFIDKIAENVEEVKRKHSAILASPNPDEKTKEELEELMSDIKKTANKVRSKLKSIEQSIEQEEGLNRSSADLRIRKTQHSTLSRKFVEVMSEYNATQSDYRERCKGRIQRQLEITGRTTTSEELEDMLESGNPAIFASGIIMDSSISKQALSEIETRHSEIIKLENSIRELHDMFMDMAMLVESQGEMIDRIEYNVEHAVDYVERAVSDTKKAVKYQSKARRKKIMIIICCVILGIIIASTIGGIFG
Chain of K85A-R86S-K87A mutant rat VAMP2 cytoplasmic portion 1-96 (P63045 1-96 K85A/R86S/K87A): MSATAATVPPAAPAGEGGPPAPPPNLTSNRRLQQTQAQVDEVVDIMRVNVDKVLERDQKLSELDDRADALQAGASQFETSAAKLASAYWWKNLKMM

Take “Fraction ν of Tityus serrulatus venom (Fx ν metalloprotease)”: the “proteolytic cleavage (PAGE staining density, 60 min)” value in data set [1] was “a clear change in staining density indicating the occurrence of cleavage by Fx ν of both the assembled complex (not boiled, lane 3) and the unassembled SNARE complex proteins (boiled, lane 4)”. Besides, the “proteolytic cleavage (PAGE, reverse phase chromatography, sequencing)” value in data set [2] was “these substitutions prevented the previously observed cleavage”. The “proteolytic cleavage (Western blot of isolated zymogen granules)” value in data set [3] was “whole TSV or Fx ν rapidly cleave VAMP2 (upper panel) even in short incubation periods (5 and 30 min)”; in data set [4] it was “VAMP8 is also a proteolytic target in ZG during incubation with Fx ν”. The “proteolytic cleavage (transblot, mass spectrometry)” value in data set [5] is “is cleaved upon exposure to Fx ν”. Further, the “proteolytic cleavage (transblot)” value in data set [6] was “is a t-SNARE that is also cleaved by Fx ν”.
